Bridge positions count the residues as written; N and C are the ends. Ends that are not written are not given here.

Binding result and Ki data for seven molecules are collected here from US20120214748A1 (published 2012).

First the molecules themselves.
T1: MASP-1 CCP1-CCP2-SP (human, UniProt P48740 298-699, limits assumed)
T1 construct: domain: CCP1-CCP2-SP; Recombinant fragment
T1 sequence (looked up): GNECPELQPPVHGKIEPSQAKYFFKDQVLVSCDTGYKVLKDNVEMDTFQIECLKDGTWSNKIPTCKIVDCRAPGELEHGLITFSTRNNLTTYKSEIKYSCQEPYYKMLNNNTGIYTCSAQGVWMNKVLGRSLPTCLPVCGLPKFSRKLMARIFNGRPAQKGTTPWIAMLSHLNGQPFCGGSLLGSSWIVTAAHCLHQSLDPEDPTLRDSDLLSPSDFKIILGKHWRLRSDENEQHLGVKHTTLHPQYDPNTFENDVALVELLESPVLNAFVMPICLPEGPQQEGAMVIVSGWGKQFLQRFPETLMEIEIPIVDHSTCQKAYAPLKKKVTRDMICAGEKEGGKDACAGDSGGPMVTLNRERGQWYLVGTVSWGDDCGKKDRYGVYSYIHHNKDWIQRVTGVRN

B1: M2-4G (peptide)
peptide: GICSRSLPPICIPD
modifications: disulfide 3-11 (inferred)
notes: Synthetic consensus peptide of the non-selective group, linear form; also called "NS" peptide; non-selective peptide
B2: M1-3E-Y12W (peptide)
peptide: GVCSRSLPPICWPD
modifications: disulfide 3-11 (inferred)
notes: The parent M1-3E was not tested as a synthetic peptide

For one assay, the target named is T2, MASP-2 CCP1-CCP2-SP (human, UniProt O00187 298-686, limits assumed).
T2 construct: domain: CCP1-CCP2-SP; Recombinant fragment
T2 sequence (O00187 298-686 limits assumed): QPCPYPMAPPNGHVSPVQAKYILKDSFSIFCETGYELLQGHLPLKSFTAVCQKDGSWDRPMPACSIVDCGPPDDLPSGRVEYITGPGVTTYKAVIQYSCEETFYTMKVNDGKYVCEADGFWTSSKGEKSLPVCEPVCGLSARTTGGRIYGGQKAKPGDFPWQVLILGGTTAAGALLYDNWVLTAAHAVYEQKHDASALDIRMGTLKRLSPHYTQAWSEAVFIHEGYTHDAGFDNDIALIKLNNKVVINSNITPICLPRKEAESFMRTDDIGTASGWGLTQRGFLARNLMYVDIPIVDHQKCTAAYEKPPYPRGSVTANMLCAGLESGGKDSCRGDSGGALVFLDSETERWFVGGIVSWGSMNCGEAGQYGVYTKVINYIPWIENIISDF
The experiment in a line: preliminary experiments, method not described.
As to EVTCEPGTTFKDKCNTCRCGSDGKSAACTLKACPQ (other, UniProt O46162 57-91, looked up) [Schistocerca Gregaria Chymotrypsin Inhibitor (SGCI)], the binding result is “no binding”.

For a further assay, the target named is T1, MASP-1 CCP1-CCP2-SP. The experiment in a line: preliminary experiments, method not described.
For EVTCEPGTTFKDKCNTCRCGSDGKSAACTLKACPQ (other, UniProt O46162 57-91, looked up) [Schistocerca Gregaria Chymotrypsin Inhibitor (SGCI)], the binding result is on record as “no binding”.

Another assay addresses T2, MASP-2 CCP1-CCP2-SP. In words: enzyme inhibition, Z-L-Lys-SBzl substrate, tight-binding fit.
Take cyclo(GICSRSLPPICIPD) (disulfide 3-11 (inferred), Backbone-cyclised form of M2-4G) [M2-4G cyclic]: the affinity, expressed as Ki, was 750 nM.

Take B1: the affinity corresponds to a Ki of 1030 nM.

B2 showed an inhibition constant Ki of 5000 nM.

Take GMCSRSYPPVCIPD (disulfide 3-11 (inferred), Point mutant of M2-6E) [M2-6E-Y2M]: the Ki stood at 1500 nM.

The molecule GYCSRSIPPVCIPD (disulfide 3-11 (inferred), Point mutant of M2-6E) [M2-6E-Y7I] showed a Ki of 7000 nM.

In turn, GWCSRSYPPVCIPD (disulfide 3-11 (inferred), Point mutant of M2-6E) [M2-6E-Y2W] displayed a Ki of 580 nM. This Ki lies about 12-fold lower than the previous one.

In a further assay the target is Trypsin. The description is as above.
Chain of Trypsin (P00760 24-246): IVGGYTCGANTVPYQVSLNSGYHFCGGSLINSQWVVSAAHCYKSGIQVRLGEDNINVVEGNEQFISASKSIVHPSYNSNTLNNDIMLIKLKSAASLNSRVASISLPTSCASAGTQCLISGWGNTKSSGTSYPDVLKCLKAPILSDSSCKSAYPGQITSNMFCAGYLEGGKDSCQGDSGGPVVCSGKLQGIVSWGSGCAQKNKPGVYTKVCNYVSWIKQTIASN
cyclo(GICSRSLPPICIPD) (disulfide 3-11 (inferred), Backbone-cyclised form of M2-4G) [M2-4G cyclic] came in with an inhibition constant (Ki) of 350 nM. That is a sub-micromolar value.

Consider B1, for which the inhibition constant Ki worked out at 260 nM.

The molecule B2 yielded a Ki of 170 nM.

Molecule GMCSRSYPPVCIPD (disulfide 3-11 (inferred), Point mutant of M2-6E) [M2-6E-Y2M] yielded a Ki of 4000 nM.

On to GYCSRSIPPVCIPD (disulfide 3-11 (inferred), Point mutant of M2-6E) [M2-6E-Y7I], for which the Ki turned out to be 160 nM.

GWCSRSYPPVCIPD (disulfide 3-11 (inferred), Point mutant of M2-6E) [M2-6E-Y2W]: the affinity corresponds to a Ki of 1700 nM.

The next assay deals with T1, MASP-1 CCP1-CCP2-SP. The description is as above.
For cyclo(GICSRSLPPICIPD) (disulfide 3-11 (inferred), Backbone-cyclised form of M2-4G) [M2-4G cyclic], the affinity corresponds to a Ki of 275 nM.

B1 came in with a Ki of 65 nM.

B2 registered a Ki of 140 nM.

Molecule GMCSRSYPPVCIPD (disulfide 3-11 (inferred), Point mutant of M2-6E) [M2-6E-Y2M] showed an inhibitory constant (Ki) of 4000 nM.

Another assay concerns the target Thrombin. The experiment in a line: enzyme inhibition, Z-Gly-Pro-Arg-pNa substrate, tight-binding fit.
For the molecule B1, affinity was put at a Ki of 10000 nM.
